Assay results published in patent publication US20210214414A1 (Pfizer, published 2021).

Columns and labels:
Rat SLIT2-N [1] = molecular target: T1, Rat SLIT2-N (rat, UniProt Q9WVC1 31-766, limits assumed); assay: SPR, ROBO2-Fc 2.2 captured by anti-human Fc on a C1 chip, rat SLIT2-N as analyte, 1:1 model
T1 construct: domain: SLIT2-N (N terminal fragment)
T1 sequence (looked up): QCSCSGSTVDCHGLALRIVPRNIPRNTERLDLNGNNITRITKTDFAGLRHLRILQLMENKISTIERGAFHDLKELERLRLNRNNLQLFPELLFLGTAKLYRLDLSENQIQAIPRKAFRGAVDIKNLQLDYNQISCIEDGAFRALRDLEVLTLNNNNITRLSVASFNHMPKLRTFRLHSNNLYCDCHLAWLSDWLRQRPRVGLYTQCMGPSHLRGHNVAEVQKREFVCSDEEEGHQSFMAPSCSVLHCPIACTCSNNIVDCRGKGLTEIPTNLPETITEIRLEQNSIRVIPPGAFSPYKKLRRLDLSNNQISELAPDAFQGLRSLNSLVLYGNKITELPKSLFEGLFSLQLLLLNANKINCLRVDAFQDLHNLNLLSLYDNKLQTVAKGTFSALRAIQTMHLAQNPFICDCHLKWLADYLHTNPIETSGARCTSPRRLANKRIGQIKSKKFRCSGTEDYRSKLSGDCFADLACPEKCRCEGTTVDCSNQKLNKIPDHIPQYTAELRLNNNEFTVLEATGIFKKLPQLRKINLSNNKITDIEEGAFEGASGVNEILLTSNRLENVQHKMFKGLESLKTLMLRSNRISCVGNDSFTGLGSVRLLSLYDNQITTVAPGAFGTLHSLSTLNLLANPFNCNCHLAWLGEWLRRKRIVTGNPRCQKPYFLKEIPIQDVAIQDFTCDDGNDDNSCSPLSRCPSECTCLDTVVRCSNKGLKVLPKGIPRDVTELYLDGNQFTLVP
Description: HBS-EP was used as a diluent. […] An 8 point 2-fold dilution series was performed on the SLIT2 ligands, ranging from 2 nM to 15.6 pM using HBS-EPB as the diluent. […] Association of the indicated SLIT2 ligand was followed for 120 s and dissociation monitored for 180 s. The apparent binding affinity was determined using a simple 1:1 interaction model of the kinetic rate constants.

Mouse SLIT2-N = molecular target: T2, Mouse SLIT2-N (mouse, UniProt Q9R1B9 26-1113, limits assumed); assay: HTRF competition: d2-labelled mouse SLIT2-N binding to human ROBO2 on HEK293 cells; geometric mean, n=3
T2 construct: domain: SLIT2-N; d2-labelled in the HTRF assay
T2 sequence (looked up): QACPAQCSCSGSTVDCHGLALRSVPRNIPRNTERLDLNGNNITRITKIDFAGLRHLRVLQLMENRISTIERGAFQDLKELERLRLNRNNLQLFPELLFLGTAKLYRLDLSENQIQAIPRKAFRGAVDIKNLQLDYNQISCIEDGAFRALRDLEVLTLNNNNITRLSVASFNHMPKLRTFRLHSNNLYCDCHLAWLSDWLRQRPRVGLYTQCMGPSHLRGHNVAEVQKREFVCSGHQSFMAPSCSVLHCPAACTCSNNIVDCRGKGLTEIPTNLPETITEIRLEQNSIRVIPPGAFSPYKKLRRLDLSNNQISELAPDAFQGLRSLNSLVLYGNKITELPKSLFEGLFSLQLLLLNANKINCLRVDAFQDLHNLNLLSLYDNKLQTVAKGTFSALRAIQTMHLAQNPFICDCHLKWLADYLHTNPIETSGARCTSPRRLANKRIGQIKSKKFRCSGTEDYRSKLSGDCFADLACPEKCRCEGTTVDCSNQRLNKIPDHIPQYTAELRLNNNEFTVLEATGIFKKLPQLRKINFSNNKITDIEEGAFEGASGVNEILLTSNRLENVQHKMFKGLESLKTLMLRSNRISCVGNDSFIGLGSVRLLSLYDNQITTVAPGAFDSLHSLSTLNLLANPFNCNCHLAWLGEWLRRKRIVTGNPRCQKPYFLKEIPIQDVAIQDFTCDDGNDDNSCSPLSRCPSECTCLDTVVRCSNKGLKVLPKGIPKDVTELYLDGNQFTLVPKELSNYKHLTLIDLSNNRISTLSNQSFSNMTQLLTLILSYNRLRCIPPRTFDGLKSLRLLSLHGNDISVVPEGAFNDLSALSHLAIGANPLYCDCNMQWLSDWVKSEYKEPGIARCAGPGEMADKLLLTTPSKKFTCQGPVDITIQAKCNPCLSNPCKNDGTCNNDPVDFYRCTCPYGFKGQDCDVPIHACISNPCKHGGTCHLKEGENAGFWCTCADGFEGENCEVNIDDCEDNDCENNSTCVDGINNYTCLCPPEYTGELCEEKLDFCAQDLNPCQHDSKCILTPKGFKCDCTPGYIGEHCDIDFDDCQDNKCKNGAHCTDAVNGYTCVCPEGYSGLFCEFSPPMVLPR
Description: (§1) After incubation, fluorescence at 665 nm and 620 nm was measured on an Envision multilabel plate reader. The HTRF Ratio was calculated as follows: fluorescence at 665 nm/fluorescence at 620 nm×10,000. […] The IC₅₀ for each SLITx-N was determined using an 11-point, 4-fold dilution series with a top concentration of 4000 nM.

Rat SLIT2-N [2] = molecular target: T1, Rat SLIT2-N; assay: HTRF competition: d2-labelled rat SLIT2-N binding to human ROBO2 on HEK293 cells (competitor: cell surface ROBO2)
Description: as §1

Kd (Rat SLIT2-N [1]): 0.543 nM | IC50 (Mouse SLIT2-N): 5.4 nM | IC50 (Rat SLIT2-N [2]): 4 nM
B1: ROBO2-Fc 2.2 (Fc fusion)
chain: SRLRQEDFPPRIVEHPSDVIVSKGEPTTLNCKAEGRPTPTIEWYKDGERVETDKDDPRSHRMLLPSGSLFFLRIVHGRRSKPDEGSYVCVARNYLGEAVSRNASLEVALLRDDFRQNPTDVVVAAGEPAILECQPPRGHPEPTIYWKKDKVRIDDKEERISIRGGKLMISNTRKSDAGMYTCVGTNMVGERDSDPAELTVFERGGSGGSEPKSSDKTHTCPPCPAPEAAGAPSVFLFPPKPKDTLMISRTPEVTCVVVDVSHEDPEVKFNWYVDGVEVHNAKTKPREEQYNSTYRVVSVLTVLHQDWLNGKEYKCKVSNKALPAPIEKTISKAKGQPREPQVYTLPPSREEMTKNQVSLTCLVKGFYPSDIAVEWESNGQPENNYKTTPPVLDSDGSFFLYSKLTVDKSRWQQGNVFSCSVMHEALHNHYTQKSLSLSPG
notes: Labelled with Alexa Fluor 647 in the flow cytometry assay; also called ROBO-Fc 2.2; ROBO2-Fc 2.2-AF647
